# T1: Human IL-2 Receptor beta, Fc-Tag (Symansis, New Zealand) (human, UniProt P14784 27-240)
# T1 construct: extracellular domain; Bought reagent; also called IL-2Rβ; IL-2Rβ-Fc; not shown: Fc-Tag (captured by anti-human IgG (Fc) antibody)
# T1 sequence (looked up): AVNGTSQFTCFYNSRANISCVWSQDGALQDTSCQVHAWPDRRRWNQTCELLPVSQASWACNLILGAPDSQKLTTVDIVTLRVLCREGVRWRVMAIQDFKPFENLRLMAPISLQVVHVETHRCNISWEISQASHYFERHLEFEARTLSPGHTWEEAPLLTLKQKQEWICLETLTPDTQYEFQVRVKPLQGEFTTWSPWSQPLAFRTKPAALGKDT
# T2: IL-2Rβγ (dimeric intermediate affinity IL-2 receptor), human, on cells (human, UniProt P14784 27-551; P31785 23-369)
# T2 sequence (looked up) 1: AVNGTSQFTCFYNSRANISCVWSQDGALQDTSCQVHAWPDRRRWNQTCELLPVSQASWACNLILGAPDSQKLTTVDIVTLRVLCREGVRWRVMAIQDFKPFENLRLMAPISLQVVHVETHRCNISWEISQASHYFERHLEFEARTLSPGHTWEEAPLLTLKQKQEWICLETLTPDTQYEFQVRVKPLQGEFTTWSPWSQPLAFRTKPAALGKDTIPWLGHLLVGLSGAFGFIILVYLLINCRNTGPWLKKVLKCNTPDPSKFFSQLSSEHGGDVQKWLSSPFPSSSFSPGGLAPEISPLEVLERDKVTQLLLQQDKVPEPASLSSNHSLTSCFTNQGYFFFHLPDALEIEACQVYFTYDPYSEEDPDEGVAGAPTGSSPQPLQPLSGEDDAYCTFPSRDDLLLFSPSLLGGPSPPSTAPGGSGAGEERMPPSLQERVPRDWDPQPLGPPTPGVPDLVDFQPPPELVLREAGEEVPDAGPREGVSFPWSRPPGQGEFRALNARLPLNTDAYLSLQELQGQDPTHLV
# T2 sequence (looked up) 2: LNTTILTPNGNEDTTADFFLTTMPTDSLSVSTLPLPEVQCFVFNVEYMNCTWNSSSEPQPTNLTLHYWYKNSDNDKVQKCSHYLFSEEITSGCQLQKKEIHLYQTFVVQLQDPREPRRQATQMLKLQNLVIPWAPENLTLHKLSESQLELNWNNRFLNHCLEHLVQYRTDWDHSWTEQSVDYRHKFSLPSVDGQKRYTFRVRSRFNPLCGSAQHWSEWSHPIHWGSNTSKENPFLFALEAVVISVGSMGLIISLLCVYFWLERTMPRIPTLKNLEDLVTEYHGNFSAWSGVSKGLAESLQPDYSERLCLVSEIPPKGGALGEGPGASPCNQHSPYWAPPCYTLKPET
# T3: IL-2-Rα/β/γ on the murine CTLL-2 T lymphocyte cell line (murine, UniProt P01590 22-268; P16297 27-539; P34902 23-369)
# T3 sequence (looked up) 1: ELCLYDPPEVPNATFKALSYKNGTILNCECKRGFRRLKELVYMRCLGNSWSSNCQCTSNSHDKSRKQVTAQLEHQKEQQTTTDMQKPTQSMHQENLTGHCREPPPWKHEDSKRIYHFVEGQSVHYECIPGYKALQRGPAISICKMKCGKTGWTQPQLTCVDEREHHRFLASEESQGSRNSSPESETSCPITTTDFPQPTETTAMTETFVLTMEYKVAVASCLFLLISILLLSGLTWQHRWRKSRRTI
# T3 sequence (looked up) 2: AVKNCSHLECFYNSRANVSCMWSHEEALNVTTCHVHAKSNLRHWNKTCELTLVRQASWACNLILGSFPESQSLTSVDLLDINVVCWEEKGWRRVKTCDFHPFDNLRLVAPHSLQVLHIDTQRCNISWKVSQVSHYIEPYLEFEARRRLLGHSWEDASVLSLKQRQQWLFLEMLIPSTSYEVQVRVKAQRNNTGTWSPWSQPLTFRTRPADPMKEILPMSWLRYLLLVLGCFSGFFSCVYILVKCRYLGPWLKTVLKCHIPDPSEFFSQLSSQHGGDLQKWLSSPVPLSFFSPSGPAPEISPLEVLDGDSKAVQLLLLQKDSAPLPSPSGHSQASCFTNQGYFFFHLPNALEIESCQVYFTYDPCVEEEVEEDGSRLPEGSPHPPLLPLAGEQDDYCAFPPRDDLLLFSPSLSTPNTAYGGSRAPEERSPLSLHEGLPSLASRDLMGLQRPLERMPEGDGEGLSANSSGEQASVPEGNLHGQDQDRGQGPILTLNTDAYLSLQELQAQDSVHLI
# T3 sequence (looked up) 3: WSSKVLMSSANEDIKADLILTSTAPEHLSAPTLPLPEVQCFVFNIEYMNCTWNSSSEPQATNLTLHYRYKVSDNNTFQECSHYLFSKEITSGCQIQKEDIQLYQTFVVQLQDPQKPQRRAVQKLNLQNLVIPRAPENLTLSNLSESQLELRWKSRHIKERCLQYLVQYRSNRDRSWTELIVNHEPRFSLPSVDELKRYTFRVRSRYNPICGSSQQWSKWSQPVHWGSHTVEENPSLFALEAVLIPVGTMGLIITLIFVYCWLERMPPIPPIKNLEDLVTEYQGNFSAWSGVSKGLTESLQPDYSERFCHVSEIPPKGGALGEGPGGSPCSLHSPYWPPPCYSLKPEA
# Columns and labels:
# [1] = biological target: T1, Human IL-2 Receptor beta, Fc-Tag …; experiment: SPR (Biacore T200), IL-2Rβ-Fc captured on anti-human IgG (Fc) CM5 chip, IL-2 as analyte, multi-cycle kinetics, 1:1 kinetic fit, 25 C
# Experimental: For the determination of binding kinetics to IL-2Rβ the following chip preparation was used: Human IL-2 Receptor beta, Fc-Tag (Symansis, New Zealand) was diluted in HBS-EP running buffer (GE Healthcare, 10 mM HEPES, 150 mM NaCl, 3 mM EDTA, 0.05% Surfactant P20, pH 7.4) to around 0.25 µg/mL and immobilized at a flow rate of 50 µL/min for 60 s to achieve 300 - 330 response units (RU).
# (50 µL/min flow rate, 60 s contact time, 300 s dissociation time). Double referenced data (subtracted data from the reference flow cell and the buffer only samples) was analysed via a kinetic fit (1:1 binding model) to determine KD, kₐ and kd. Regeneration after each cycle was performed with 3 M MgCl₂.
# [2] = biological target: T2, IL-2Rβγ (dimeric intermediate affinity …); experiment: cell-based or functional assay
# [3] = biological target: T3, IL-2-Rα/β/γ on the murine CTLL-2 T …; experiment: cell-based or functional assay
# [4] = biological target: T2, IL-2Rβγ (dimeric intermediate affinity …); experiment: cell-based or functional assay; remark: listed apart in the source
# [5] = biological target: T3, IL-2-Rα/β/γ on the murine CTLL-2 T …; experiment: cell-based or functional assay; remark: listed apart in the source
binder,measurement,setting,value
"protein 6 (ligand, glycosylated (same sequence with the N-glycosylation motif FGNST as protein 1f); glycan sites not analysed separately for protein 6) APTSSSTKKTQLQLEHLLLDLQMILNGINNYKNPKLTFGNSTKFYMPKKATELKHLQCLEEELKPLEEVLNLAQSKNFHLRPRDLISNINVIVLELKGSETTFMCEYADETATIVEFLNRWITFSQSIISTLT",Kd,[1],740 nM
same,"EC50, pSTAT5 MFI, CD8 (human PBMCs)",[2],78.8 ng/mL
same,"EC50, pSTAT5 MFI, NK (human PBMCs)",[2],11.7 ng/mL
same,"EC50 CTLL-2, STAT5 phosphorylation",[3],3.39 µg/mL
same,Ratio (E50 CTLL-2 cells/EC50 HH cell),[3],35.1
same,"EC50 HH cells, STAT5 phosphorylation",[4],0.0966 µg/mL
same,ratio of Ratio protein 6 to Ratio protein 5a (EC50 CTLL-2 cells / EC50 HH cells),[5],> 250

# Source: patent publication US20230340055A1 (published 2023)
